Target: T1, human SLC34A2 (human, UniProt O95436 1-690)
T1 construct: whole, on cells; also called human solute carrier 34 A2; NaPi2b
T1 sequence (looked up): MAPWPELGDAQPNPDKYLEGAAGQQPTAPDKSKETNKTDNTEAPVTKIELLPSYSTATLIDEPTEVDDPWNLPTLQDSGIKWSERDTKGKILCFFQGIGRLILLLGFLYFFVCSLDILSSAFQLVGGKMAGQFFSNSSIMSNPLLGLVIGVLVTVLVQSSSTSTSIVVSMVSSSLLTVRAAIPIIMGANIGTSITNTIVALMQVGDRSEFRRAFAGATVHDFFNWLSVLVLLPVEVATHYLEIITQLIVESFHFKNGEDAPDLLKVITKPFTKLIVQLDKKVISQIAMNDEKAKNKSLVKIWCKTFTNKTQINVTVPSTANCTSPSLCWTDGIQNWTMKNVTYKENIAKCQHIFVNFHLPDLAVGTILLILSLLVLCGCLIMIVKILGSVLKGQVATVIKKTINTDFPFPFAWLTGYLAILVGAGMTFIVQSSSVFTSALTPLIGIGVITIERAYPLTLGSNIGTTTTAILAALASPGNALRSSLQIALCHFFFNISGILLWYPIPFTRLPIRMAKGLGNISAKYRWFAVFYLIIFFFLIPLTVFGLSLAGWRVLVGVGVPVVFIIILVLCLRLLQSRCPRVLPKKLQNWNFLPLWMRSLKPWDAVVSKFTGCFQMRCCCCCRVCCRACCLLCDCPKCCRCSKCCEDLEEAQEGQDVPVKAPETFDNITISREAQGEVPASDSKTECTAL
Assay: FACS, OVCAR3 cells
Description: The binding of these humanized antibodies to OVCAR3 cells was evaluated as described above, and the results are shown in FIG. 12A-D and Tables 16A-D.

Binder | EC50 | Top (MFI)
30H9B8F9.p1.z1 hIgG1 (antibody, V domains shown, humanized hIgG1) VH: QVQLVQSGAEVKKPGASVKVSCKASGYTFTTNNMHWVRQAPGQGLEWMGAIYPGSGATAYNQKFKGRVTMTRDTSTSTVYMELSSLRSEDTAVYYCASGMYGHGAMDYWGQGTLVTVSS VL: DIQLTQSPSFLSASVGDRVTITCKASQDVGTAVAWYQQKPGKAPKLLIYWATTRHSGVPSRFSGSGSGTEFTLTISSLQPEDFATYYCQQYSSNPLTFGQGTKLEIK | 2.75 nM | 27100 MFI
30H9B8F9.p1.z4 hIgG1 (antibody, V domains shown, humanized hIgG1) VH: QVQLVQSGAEVKKPGASVKVSCKASGYTFTTNNMHWVRQAPGQGLEWMGAIYPGSGATAYNQKFKGRVTMTRDTSTSTVYMELSSLRSEDTAVYYCASGMYGHGAMDYWGQGTLVTVSS VL: DIVMTQSPSFLSASVGDRVTITCKASQDVGTAVAWYQQKPGKSPKLLIYWATTRHSGVPDRFTGSGSGTDFIFTISSVQPEDFATYFCQQYSSNPLTFGAGTKLEIK | 2.76 nM | 20400 MFI
30H9B8F9.p1.z2 hIgG1 (antibody, V domains shown, humanized hIgG1) VH: QVQLVQSGAEVKKPGASVKVSCKASGYTFTTNNMHWVRQAPGQGLEWMGAIYPGSGATAYNQKFKGRVTMTRDTSTSTVYMELSSLRSEDTAVYYCASGMYGHGAMDYWGQGTLVTVSS VL: DIQLTQSPSFLSASVGDRVTITCKASQDVGTAVAWYQQKPGKSPKLLIYWATTRHSGVPDRFSGSGSGTEFTFTISSLQPEDFATYFCQQYSSNPLTFGQGTKLEIK | 3.09 nM | 25200 MFI
30H9B8F9.p1.z7 hIgG1 (antibody, V domains shown, humanized hIgG1) VH: QVQLVQSGAEVKKPGASVKVSCKTSGYTFTTNNMHWVRQAPGQGLEWIGAIYPGSGATAYNQKFKGRVTMTADTSTSTVYMELSSLRSEDTAVYYCARGMYGHGAMDYWGQGTLVTVSS VL: DIQMTQSPSFLSASVGDRVTITCKASQDVGTAVAWYQQKPGKSPKLLIYWATTRHSGVPDRFSGSGSGTEFIFTISSVQPEDFATYFCQQYSSNPLTFGAGTKLEIK | 1.69 nM | 26700 MFI
30H9B8F9.p1.z8 hIgG1 (antibody, V domains shown, humanized hIgG1) VH: QVQLVQSGAEVKKPGASVKVSCKTSGYTFTTNNMHWVRQAPGQGLEWIGAIYPGSGATAYNQKFKGRVTMTADTSTSTVYMELSSLRSEDTAVYYCARGMYGHGAMDYWGQGTLVTVSS VL: DIVMTQSPSFLSASVGDRVTITCKASQDVGTAVAWYQQKPGKSPKLLIYWATTRHSGVPDRFTGSGSGTDFIFTISSVQPEDFATYFCQQYSSNPLTFGAGTKLEIK | 1.9 nM | 26200 MFI
30H9B8F9.p1.z3 hIgG1 (antibody, V domains shown, humanized hIgG1) VH: QVQLVQSGAEVKKPGASVKVSCKASGYTFTTNNMHWVRQAPGQGLEWMGAIYPGSGATAYNQKFKGRVTMTRDTSTSTVYMELSSLRSEDTAVYYCASGMYGHGAMDYWGQGTLVTVSS VL: DIQMTQSPSFLSASVGDRVTITCKASQDVGTAVAWYQQKPGKSPKLLIYWATTRHSGVPDRFSGSGSGTEFIFTISSVQPEDFATYFCQQYSSNPLTFGAGTKLEIK | 2.38 nM | 19600 MFI
62G10E4G8.p3.z7 hIgG1 (antibody, V domains shown, humanized hIgG1) VH: QVQLVQSGAEVKKPGASVKVSCKASGYTFPSYITHWVRQAPGQGLEWIGAIYPGNADTSYIQKFKGRVTMTADKSTSTVYMELSSLRSEDTAVYYCARGTYGTSAWFTYWGQGTLVTVSS VL: EIVLTQSPATLSVSPGERATLSCRARQNIGNNLYWYQQKPGQSPRLLIKYASQSISGIPSRFSGSGSGTDFTLTISSLQSEDFAVYFCQQSFSWPLTFGQGTKLEIK | 6.08 nM | 26800 MFI
62G10E4G8.p3.z9 hIgG1 (antibody, V domains shown, humanized hIgG1) VH: QVQLVQSGAEVKKPGASVKVSCKASGYTFPSYITHWVKQAPGQGLEWIGAIYPGNADTSYIQKFKGRVTLTADKSTSTAYMELSSLRSEDTAVYYCARGTYGTSAWFTYWGQGTLVTVSS VL: EIVMTQSPATLSVSPGERATLSCRARQNIGNNLYWYQQKPGQAPRLLIYYASQSISGIPARFSGSGSGTEFTLTISSLQSEDFAVYYCQQSFSWPLTFGQGTKLEIK | 24.1 nM | 31300 MFI
62G10E4G8.p3.z3 hIgG1 (antibody, V domains shown, humanized hIgG1) VH: QVQLVQSGAEVKKPGASVKVSCKASGYTFPSYITHWVRQAPGQGLEWMGAIYPGNADTSYIQKFKGRVTMTRDTSTSTVYMELSSLRSEDTAVYYCARGTYGTSAWFTYWGQGTLVTVSS VL: EIVLTQSPATLSVSPGERATLSCRARQNIGNNLYWYQQKPGQSPRLLIKYASQSISGIPSRFSGSGSGTDFTLTISSLQSEDFAVYFCQQSFSWPLTFGQGTKLEIK | 17.3 nM | 31300 MFI
62G10E4G8.p3.z5 hIgG1 (antibody, V domains shown, humanized hIgG1) VH: QVQLVQSGAEVKKPGASVKVSCKASGYTFPSYITHWVRQAPGQGLEWIGAIYPGNADTSYIQKFKGRVTMTADKSTSTVYMELSSLRSEDTAVYYCARGTYGTSAWFTYWGQGTLVTVSS VL: EIVMTQSPATLSVSPGERATLSCRARQNIGNNLYWYQQKPGQAPRLLIYYASQSISGIPARFSGSGSGTEFTLTISSLQSEDFAVYYCQQSFSWPLTFGQGTKLEIK | ~1360 nM | ~230000 MFI
62G10E4G8.p3.z14 hIgG1 (antibody, V domains shown, humanized hIgG1) VH: QVQLVQSGAEVVKPGASVKMSCKASGYTFPSYITHWVKQAPGQGLEWIGAIYPGNADTSYIQKFKGRATLTADKSTSTAYMELSSLRSEDTAVYYCARGTYGTSAWFTYWGQGTLVTVSS VL: EIVMTQSPATLSVSPGERATLSCRARQNIGNNLYWYQQKPGQSPRLLIKYASQSISGIPARFSGSGSGTEFTLTISSLQSEDFAVYFCQQSFSWPLTFGQGTKLEIK | 4.58 nM | 27900 MFI
62G10E4G8.p3.z1 hIgG1 (antibody, V domains shown, humanized hIgG1) VH: QVQLVQSGAEVKKPGASVKVSCKASGYTFPSYITHWVRQAPGQGLEWMGAIYPGNADTSYIQKFKGRVTMTRDTSTSTVYMELSSLRSEDTAVYYCARGTYGTSAWFTYWGQGTLVTVSS VL: EIVMTQSPATLSVSPGERATLSCRARQNIGNNLYWYQQKPGQAPRLLIYYASQSISGIPARFSGSGSGTEFTLTISSLQSEDFAVYYCQQSFSWPLTFGQGTKLEIK | 944 nM | 87700 MFI
62G10E4G8.p3.z6 hIgG1 (antibody, V domains shown, humanized hIgG1) VH: QVQLVQSGAEVKKPGASVKVSCKASGYTFPSYITHWVRQAPGQGLEWIGAIYPGNADTSYIQKFKGRVTMTADKSTSTVYMELSSLRSEDTAVYYCARGTYGTSAWFTYWGQGTLVTVSS VL: EIVMTQSPATLSVSPGERATLSCRARQNIGNNLYWYQQKPGQSPRLLIKYASQSISGIPARFSGSGSGTEFTLTISSLQSEDFAVYFCQQSFSWPLTFGQGTKLEIK | 8.06 nM | 28200 MFI
62G10E4G8.p3.z16 hIgG1 (antibody, V domains shown, humanized hIgG1) VH: QVQLVQSGAEVVKPGASVKMSCKASGYTFPSYITHWVKQAPGQGLEWIGAIYPGNADTSYIQKFKGRATLTADKSTSTAYMELSSLRSEDTAVYYCARGTYGTSAWFTYWGQGTLVTVSS VL: EIVLTQSPATLSASPGERATLSCRARQNIGNNLYWYQQKPGQSPRLLIKYASQSISGIPSRFSGSGSGTDFTLTISSVQSEDFAVYFCQQSFSWPLTFGAGTKLEIK | 10.9 nM | 31900 MFI
62G10E4G8.p3.z4 hIgG1 (antibody, V domains shown, humanized hIgG1) VH: QVQLVQSGAEVKKPGASVKVSCKASGYTFPSYITHWVRQAPGQGLEWMGAIYPGNADTSYIQKFKGRVTMTRDTSTSTVYMELSSLRSEDTAVYYCARGTYGTSAWFTYWGQGTLVTVSS VL: EIVLTQSPATLSASPGERATLSCRARQNIGNNLYWYQQKPGQSPRLLIKYASQSISGIPSRFSGSGSGTDFTLTISSVQSEDFAVYFCQQSFSWPLTFGAGTKLEIK | 16.3 nM | 29900 MFI
62G10E4G8.p3.z2 hIgG1 (antibody, V domains shown, humanized hIgG1) VH: QVQLVQSGAEVKKPGASVKVSCKASGYTFPSYITHWVRQAPGQGLEWMGAIYPGNADTSYIQKFKGRVTMTRDTSTSTVYMELSSLRSEDTAVYYCARGTYGTSAWFTYWGQGTLVTVSS VL: EIVMTQSPATLSVSPGERATLSCRARQNIGNNLYWYQQKPGQSPRLLIKYASQSISGIPARFSGSGSGTEFTLTISSLQSEDFAVYFCQQSFSWPLTFGQGTKLEIK | 32.9 nM | 29700 MFI
62G10E4G8.p3.z12 hIgG1 (antibody, V domains shown, humanized hIgG1) VH: QVQLVQSGAEVKKPGASVKVSCKASGYTFPSYITHWVKQAPGQGLEWIGAIYPGNADTSYIQKFKGRVTLTADKSTSTAYMELSSLRSEDTAVYYCARGTYGTSAWFTYWGQGTLVTVSS VL: EIVLTQSPATLSASPGERATLSCRARQNIGNNLYWYQQKPGQSPRLLIKYASQSISGIPSRFSGSGSGTDFTLTISSVQSEDFAVYFCQQSFSWPLTFGAGTKLEIK | 2.96 nM | 25400 MFI
62G10E4G8.p3.z10 hIgG1 (antibody, V domains shown, humanized hIgG1) VH: QVQLVQSGAEVKKPGASVKVSCKASGYTFPSYITHWVKQAPGQGLEWIGAIYPGNADTSYIQKFKGRVTLTADKSTSTAYMELSSLRSEDTAVYYCARGTYGTSAWFTYWGQGTLVTVSS VL: EIVMTQSPATLSVSPGERATLSCRARQNIGNNLYWYQQKPGQSPRLLIKYASQSISGIPARFSGSGSGTEFTLTISSLQSEDFAVYFCQQSFSWPLTFGQGTKLEIK | 4.87 nM | 27400 MFI

— patent US20240301052A1 (LANOVA MEDICINES DEVELOPMENT, published 2024)
